Experimental findings from PMC4497409, “Structure and functional properties of Norrin mimic Wnt for signalling with Frizzled4, Lrp5/6, and proteoglycan” (eLife, 2015) are described below.

First the molecules themselves.
T1: Lrp6 ectodomain fragment comprising the first two tandem beta-propeller-epidermal growth factor-like domain … (human, UniProt O75581 20-631)
T1 construct: signal peptide in the construct; low-density lipoprotein receptor related protein 6, human, residues 1-631 (P1E1P2E2)
T1 sequence (looked up): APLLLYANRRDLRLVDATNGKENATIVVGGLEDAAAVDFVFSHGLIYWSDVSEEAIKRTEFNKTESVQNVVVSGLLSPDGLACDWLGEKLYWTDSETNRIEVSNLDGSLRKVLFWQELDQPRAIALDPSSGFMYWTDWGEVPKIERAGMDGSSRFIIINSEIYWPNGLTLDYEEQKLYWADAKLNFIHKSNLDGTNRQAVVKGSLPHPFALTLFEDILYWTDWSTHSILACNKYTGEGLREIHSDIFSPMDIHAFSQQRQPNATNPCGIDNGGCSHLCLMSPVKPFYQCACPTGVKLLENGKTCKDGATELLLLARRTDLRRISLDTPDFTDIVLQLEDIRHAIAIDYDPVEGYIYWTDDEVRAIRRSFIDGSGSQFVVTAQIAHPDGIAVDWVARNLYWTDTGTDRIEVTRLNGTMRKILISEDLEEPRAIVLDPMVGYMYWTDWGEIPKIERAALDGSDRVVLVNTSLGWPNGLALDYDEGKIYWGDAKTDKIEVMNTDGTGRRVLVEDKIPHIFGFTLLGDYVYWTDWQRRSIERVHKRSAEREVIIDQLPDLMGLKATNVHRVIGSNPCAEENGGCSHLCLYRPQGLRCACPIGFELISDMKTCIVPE

T2: Frizzled5 cysteine-rich domain, mouse (mouse, UniProt Q9EQD0 31-176)
T2 sequence (looked up): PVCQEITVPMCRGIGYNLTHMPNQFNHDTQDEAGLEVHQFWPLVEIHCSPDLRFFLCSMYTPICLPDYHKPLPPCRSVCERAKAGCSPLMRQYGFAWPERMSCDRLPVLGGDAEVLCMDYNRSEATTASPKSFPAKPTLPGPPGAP

T3: Frizzled8 cysteine-rich domain, mouse (mouse, UniProt Q61091 30-170)
T3 sequence (looked up): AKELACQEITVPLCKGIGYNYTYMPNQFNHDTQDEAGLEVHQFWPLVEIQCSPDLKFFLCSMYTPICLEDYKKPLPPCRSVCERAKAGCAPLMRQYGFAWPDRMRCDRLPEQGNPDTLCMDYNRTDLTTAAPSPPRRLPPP

B1: Biotinylated human Norrin wild-type (pHL-Avitag3 construct) (ligand, UniProt Q00604 25-133, looked up)
chain: KTDSSFIMDSDPRRCMRHHYVDSISHPLYKCSSKMVLLARCEGHCSQASRSEPLVSFSTVLKQPFRSSCHCCRPQTSKLKALRLRCSGGMRLTATYRYILSCHCEECNS
modifications: biotin on the C-terminal BirA recognition sequence (in vivo biotinylation)
notes: Norrin (Norrie Disease Protein), human, UniProtKB/Swiss-Prot Q00604; The same plasmids were used in the luciferase reporter assays; also called Norrin WT; source: HEK293T, co-transfected with BirA-ER for in vivo biotinylation, secreted
B2: Frizzled4 cysteine-rich domain (Fz4CRD), human (domain or fragment, UniProt Q9ULV1 42-179, looked up)
chain: ERRCDPIRISMCQNLGYNVTKMPNLVGHELQTDAELQLTTFTPLIQYGCSSQLQFFLCSVYVPMCTEKINIPIGPCGGMCLSVKRRCEPVLKEFGFAWPESLNCSKFPPQNDHNHMCMEGPGDEEVPLPHKTPIQPGE
modifications: N-linked glycans at Asn59 and Asn144 (full, or cut to N-acetylglucosamine by Endo-F1)
notes: Frizzled4 cysteine-rich domain, human, residues 42-179; Glycosylated and deglycosylated samples of the same construct are kept as one molecule; the assay's format tells which was used; also called human Fz4CRD; source: HEK293T, secreted, purified (IMAC, HRV-3C cleavage, IMAC, SEC); with kifunensine and Endo-F1 treatment for crystallisation and the deglycosylated samples; fully glycosylated for …

For assay [1], the target named is B2. Briefly: SPR; Biacore T200, 25 C, 10 mM HEPES, pH 7.5, 0.15 M NaCl, 0.005% Tween20; biotinylated Norrin variants captured on streptavidin coupled to a CM5 chip; glycosylated FzCRD proteins or Lrp6 P1E1P2E2 as analytes; equilibrium binding, 1:1 Langmuir model; whether the biotinylated Norrin was purified before capture is not told.
Assay [2] deals with T1, Lrp6 ectodomain fragment comprising the …. The description is as above.
Assay [3] deals with T2, Frizzled5 cysteine-rich domain, mouse. Described as above.
Assay [4] addresses T3, Frizzled8 cysteine-rich domain, mouse. Described as above.
The target of assay [5] is T4, Norrin R107E/R109E/R115L (in the Norrin R107E/R109E/R115L-Fz4CRD complex) (human, UniProt Q00604 25-133, R107E | R109E | R115L).
T4 construct: Norrin, human, UniProtKB/Swiss-Prot Q00604, residues 25-133; source: HEK293T, complex with Fz4CRD, purified (SEC)
Briefly: SEC-MALS; Norrin-Fz4CRD complex at 25 uM (glycosylated and deglycosylated), without SOS, on Superdex S200 10/300 GL in 10 mM HEPES, pH 7.5, 0.15 mM NaCl (so in the source). As to conditions: both partners purified.

The target in assay [6] is T5, Norrin (Norrie Disease Protein), recombinant wild-type after removal of the SUMO fusion tag (human, UniProt Q00604 25-133).
T5 construct: Norrin (Norrie Disease Protein), human, UniProtKB/Swiss-Prot Q00604, residues 25-133; Disulphide-linked homodimer (Cys93-Cys95, Cys95-Cys93, Cys131-Cys131); also called untagged Norrin; Norrin wild-type; source: for the complex co-expressed with Fz4CRD in HEK293T with kifunensine and valproic acid, purified (IMAC, SEC); not shown: Strep-II, N-terminal, cleaved; His8, N-terminal, cleaved; SUMO (S. …)
The assay can be described thus: SAXS; deglycosylated Norrin-Fz4CRD complex at 1.02 and 2.14 mg/ml in 10 mM HEPES, 0.5 M NaCl, without SOS; 293 K. As to conditions: both partners purified.

Where “and” joins values, the source holds several entries; their conditions need not be identical. Equal entries are not always repeated.

Regarding B1, the Kd (commonly the equilibrium constant for the complex coming apart) is 1100 nM and 1000 nM in assay [1]; 2870 nM in assay [2]; 42000 nM in assay [3]; 64000 nM in assay [4].
For B2, the “stoichiometry N” value in assay [5] and in assay [6] was 2 Fz4CRD per Norrin dimer (printed 2:2) in each case.
